According to article PMC4672733 (Immunity, 2015):

Molecular target: T1, GST-CARD9 (human, UniProt Q9H257 1-536)
T1 sequence (looked up): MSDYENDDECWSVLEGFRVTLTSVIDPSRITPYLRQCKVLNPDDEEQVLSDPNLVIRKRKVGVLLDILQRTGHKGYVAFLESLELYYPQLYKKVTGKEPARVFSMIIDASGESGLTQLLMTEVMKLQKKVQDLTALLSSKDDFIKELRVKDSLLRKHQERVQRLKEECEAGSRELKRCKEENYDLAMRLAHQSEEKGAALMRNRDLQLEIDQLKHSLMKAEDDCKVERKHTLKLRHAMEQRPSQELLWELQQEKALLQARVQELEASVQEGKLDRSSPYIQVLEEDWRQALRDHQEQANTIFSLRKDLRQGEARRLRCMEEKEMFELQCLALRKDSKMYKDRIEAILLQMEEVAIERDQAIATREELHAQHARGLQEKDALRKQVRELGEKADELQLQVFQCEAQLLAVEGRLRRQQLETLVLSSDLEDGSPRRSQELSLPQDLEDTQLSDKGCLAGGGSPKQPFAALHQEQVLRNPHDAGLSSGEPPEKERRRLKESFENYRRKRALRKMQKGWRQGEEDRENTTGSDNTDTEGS
Test: ELISA

binding result: binds
B1: purified FLAG-tagged CARD9 WT (natural protein, human, UniProt Q9H257 1-536, looked up)
chain: MSDYENDDECWSVLEGFRVTLTSVIDPSRITPYLRQCKVLNPDDEEQVLSDPNLVIRKRKVGVLLDILQRTGHKGYVAFLESLELYYPQLYKKVTGKEPARVFSMIIDASGESGLTQLLMTEVMKLQKKVQDLTALLSSKDDFIKELRVKDSLLRKHQERVQRLKEECEAGSRELKRCKEENYDLAMRLAHQSEEKGAALMRNRDLQLEIDQLKHSLMKAEDDCKVERKHTLKLRHAMEQRPSQELLWELQQEKALLQARVQELEASVQEGKLDRSSPYIQVLEEDWRQALRDHQEQANTIFSLRKDLRQGEARRLRCMEEKEMFELQCLALRKDSKMYKDRIEAILLQMEEVAIERDQAIATREELHAQHARGLQEKDALRKQVRELGEKADELQLQVFQCEAQLLAVEGRLRRQQLETLVLSSDLEDGSPRRSQELSLPQDLEDTQLSDKGCLAGGGSPKQPFAALHQEQVLRNPHDAGLSSGEPPEKERRRLKESFENYRRKRALRKMQKGWRQGEEDRENTTGSDNTDTEGS
